This experiment addresses VSV:H2-K^b (mouse | not stated) (UniProt P03521). In words: micropipette adhesion frequency.
UniProt P03521, sequence (P03521 whole entry, looked up): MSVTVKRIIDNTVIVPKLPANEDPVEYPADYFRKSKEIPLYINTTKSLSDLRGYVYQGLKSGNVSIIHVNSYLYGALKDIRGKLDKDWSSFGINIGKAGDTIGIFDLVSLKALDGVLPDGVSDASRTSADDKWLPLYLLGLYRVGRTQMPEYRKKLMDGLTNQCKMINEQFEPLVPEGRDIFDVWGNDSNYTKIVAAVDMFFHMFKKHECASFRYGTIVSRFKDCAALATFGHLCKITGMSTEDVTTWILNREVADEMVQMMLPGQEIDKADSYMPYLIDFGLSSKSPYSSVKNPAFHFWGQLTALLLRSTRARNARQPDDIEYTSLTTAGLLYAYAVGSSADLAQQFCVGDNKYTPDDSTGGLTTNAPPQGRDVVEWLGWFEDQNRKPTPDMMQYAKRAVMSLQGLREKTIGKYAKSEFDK

Substance “CD8 on CD8+ T cells of OT-I mice (from UniProt P01731;P10300) (receptor)” showed a fold smaller 2D affinity than TCR–pMHC of 500 fold.

These data come from paper doi:10.1101/2022.09.11.507496.
